Publication PMC6776665

Columns and labels:
[1] = biological target: GST-tagged TRIM21-RING (residue 1-85) (UniProt P19474); experiment: SPR; BIAcore T200; GST-T21-R captured on an anti-GST antibody-coated CM5 chip (GST on the reference channel); Ube2N or Ube2N~Ub injected in 1:2 dilution series from 80 µM; 30 µl/min; 20 mM Tris-HCl pH 8.0, 150 mM NaCl, 1 mM DTT; 25 °C; KD from equilibrium responses, single-site model
TRIM21-RING^M10E = TRIM21-RING^M10E (UniProt P19474); experiment: NMR titration; Ube2N^C87K/K92A titrated into 100 µM 15N-labelled T21-R^M10E constructs; KD from fits of chemical shift perturbations (five peaks); 25 °C; 50 mM deuterated Tris pH 7.0, 150 mM NaCl, 1 mM deuterated DTT
TRIM21-RING^M10E/E12R = TRIM21-RING^M10E/E12R (UniProt P19474); experiment: as above

Substance | Kd [1] [µM] | koff [1] [s⁻¹] | Kd (TRIM21-RING^M10E) [µM] | Kd (TRIM21-RING^M10E/E12R) [µM]
isopeptide-linked Ube2N^C87K/K92A~ubiquitin conjugate (from UniProt P0CG48 1-76) (complex) | 5 | 0.15 |  | 
Ube2N^C87K/K92A (enzyme) |  |  | 15 | 57
Ube2N (as used in the SPR experiment) (enzyme) | 43 | > 1 |  | 
